Laboratory results reported in patent US20240279278A1, “NMU RECEPTOR 2 AGONISTS” (Boehringer Ingelheim International GmbH, priority 2023, published 2024).

T1: human neuromedin U receptor 1 (human, UniProt Q9HB89 24-426)
T1 sequence (looked up): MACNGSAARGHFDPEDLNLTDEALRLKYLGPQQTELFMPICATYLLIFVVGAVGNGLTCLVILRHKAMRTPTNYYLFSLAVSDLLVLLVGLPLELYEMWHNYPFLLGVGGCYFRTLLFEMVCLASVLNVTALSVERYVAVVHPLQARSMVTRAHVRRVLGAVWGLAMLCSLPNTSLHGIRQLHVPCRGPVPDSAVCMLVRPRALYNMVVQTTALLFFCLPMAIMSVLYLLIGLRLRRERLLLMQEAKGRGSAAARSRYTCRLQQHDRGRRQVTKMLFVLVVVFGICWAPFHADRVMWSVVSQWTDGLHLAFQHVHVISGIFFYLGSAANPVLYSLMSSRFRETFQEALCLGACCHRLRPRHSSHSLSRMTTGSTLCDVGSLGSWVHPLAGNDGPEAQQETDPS

B1: C18DA-gGlu3-Sar12-AEPipAc-Tyr-Phe-Leu-Nle-Orn-Pro-Arg-Gly-NH2 (peptide)
peptide: EEEXXXXXXXXXXXXXYFLXXPRG
HELM: PEPTIDE1{[O=C(O)CCCCCCCCCCCCCCCCC(=O)[*:2]].[gGlu].[gGlu].[gGlu].[Sar].[Sar].[Sar].[Sar].[Sar].[Sar].[Sar].[Sar].[Sar].[Sar].[Sar].[Sar].[O=C(CN1CCN(CCN[*:1])CC1)[*:2]].Y.F.L.[Nle].[Orn].P.R.G.[am]}$$$$V2.0
SMILES: CCCC[C@H](NC(=O)[C@H](CC(C)C)NC(=O)[C@H](Cc1ccccc1)NC(=O)[C@H](Cc1ccc(O)cc1)NC(=O)CN1CCN(CCNC(=O)CN(C)C(=O)CN(C)C(=O)CN(C)C(=O)CN(C)C(=O)CN(C)C(=O)CN(C)C(=O)CN(C)C(=O)CN(C)C(=O)CN(C)C(=O)CN(C)C(=O)CN(C)C(=O)CN(C)C(=O)CC[C@H](NC(=O)CC[C@H](NC(=O)CC[C@H](NC(=O)CCCCCCCCCCCCCCCCC(=O)O)C(=O)O)C(=O)O)C(=O)O)CC1)C(=O)N[C@@H](CCCN)C(=O)N1CCC[C@H]1C(=O)N[C@@H](CCCNC(=N)N)C(=O)NCC(N)=O
B2: C18A-gGlu3-Sar12-AEPipAc-Tyr-Phe-NMeLeu-Nle-Orn-Pro-Arg-Gly-NH2 (peptide)
peptide: EEEXXXXXXXXXXXXXYFLXXPRG
HELM: PEPTIDE1{[CCCCCCCCCCCCCCCCCC(=O)[*:2]].[gGlu].[gGlu].[gGlu].[Sar].[Sar].[Sar].[Sar].[Sar].[Sar].[Sar].[Sar].[Sar].[Sar].[Sar].[Sar].[O=C(CN1CCN(CCN[*:1])CC1)[*:2]].Y.F.[meL].[Nle].[Orn].P.R.G.[am]}$$$$V2.0
SMILES: CCCCCCCCCCCCCCCCCC(=O)N[C@@H](CCC(=O)N[C@@H](CCC(=O)N[C@@H](CCC(=O)N(C)CC(=O)N(C)CC(=O)N(C)CC(=O)N(C)CC(=O)N(C)CC(=O)N(C)CC(=O)N(C)CC(=O)N(C)CC(=O)N(C)CC(=O)N(C)CC(=O)N(C)CC(=O)N(C)CC(=O)NCCN1CCN(CC(=O)N[C@@H](Cc2ccc(O)cc2)C(=O)N[C@@H](Cc2ccccc2)C(=O)N(C)[C@@H](CC(C)C)C(=O)N[C@@H](CCCC)C(=O)N[C@@H](CCCN)C(=O)N2CCC[C@H]2C(=O)N[C@@H](CCCNC(=N)N)C(=O)NCC(N)=O)CC1)C(=O)O)C(=O)O)C(=O)O
B3: C18DA-gGlu3-Sar15-AEPipAc-Tyr-Phe-Leu-Nle-Arg-Pro-Arg-Gly-NH2 (peptide)
peptide: EEEXXXXXXXXXXXXXXXXYFLXRPRG
HELM: PEPTIDE1{[O=C(O)CCCCCCCCCCCCCCCCC(=O)[*:2]].[gGlu].[gGlu].[gGlu].[Sar].[Sar].[Sar].[Sar].[Sar].[Sar].[Sar].[Sar].[Sar].[Sar].[Sar].[Sar].[Sar].[Sar].[Sar].[O=C(CN1CCN(CCN[*:1])CC1)[*:2]].Y.F.L.[Nle].R.P.R.G.[am]}$$$$V2.0
SMILES: CCCC[C@H](NC(=O)[C@H](CC(C)C)NC(=O)[C@H](Cc1ccccc1)NC(=O)[C@H](Cc1ccc(O)cc1)NC(=O)CN1CCN(CCNC(=O)CN(C)C(=O)CN(C)C(=O)CN(C)C(=O)CN(C)C(=O)CN(C)C(=O)CN(C)C(=O)CN(C)C(=O)CN(C)C(=O)CN(C)C(=O)CN(C)C(=O)CN(C)C(=O)CN(C)C(=O)CN(C)C(=O)CN(C)C(=O)CN(C)C(=O)CC[C@H](NC(=O)CC[C@H](NC(=O)CC[C@H](NC(=O)CCCCCCCCCCCCCCCCC(=O)O)C(=O)O)C(=O)O)C(=O)O)CC1)C(=O)N[C@@H](CCCNC(=N)N)C(=O)N1CCC[C@H]1C(=O)N[C@@H](CCCNC(=N)N)C(=O)NCC(N)=O
B4: C20A-gGlu3-Sar15-AEPipAc-Tyr-Phe-NMeLeu-Nle-Orn-Pro-Arg-Gly-NH2 (peptide)
peptide: EEEXXXXXXXXXXXXXXXXYFLXXPRG
HELM: PEPTIDE1{[CCCCCCCCCCCCCCCCCCCC(=O)[*:2]].[gGlu].[gGlu].[gGlu].[Sar].[Sar].[Sar].[Sar].[Sar].[Sar].[Sar].[Sar].[Sar].[Sar].[Sar].[Sar].[Sar].[Sar].[Sar].[O=C(CN1CCN(CCN[*:1])CC1)[*:2]].Y.F.[meL].[Nle].[Orn].P.R.G.[am]}$$$$V2.0
SMILES: CCCCCCCCCCCCCCCCCCCC(=O)N[C@@H](CCC(=O)N[C@@H](CCC(=O)N[C@@H](CCC(=O)N(C)CC(=O)N(C)CC(=O)N(C)CC(=O)N(C)CC(=O)N(C)CC(=O)N(C)CC(=O)N(C)CC(=O)N(C)CC(=O)N(C)CC(=O)N(C)CC(=O)N(C)CC(=O)N(C)CC(=O)N(C)CC(=O)N(C)CC(=O)N(C)CC(=O)NCCN1CCN(CC(=O)N[C@@H](Cc2ccc(O)cc2)C(=O)N[C@@H](Cc2ccccc2)C(=O)N(C)[C@@H](CC(C)C)C(=O)N[C@@H](CCCC)C(=O)N[C@@H](CCCN)C(=O)N2CCC[C@H]2C(=O)N[C@@H](CCCNC(=N)N)C(=O)NCC(N)=O)CC1)C(=O)O)C(=O)O)C(=O)O
B5: C20DA-gGlu3-Sar15-AEPipAc-Tyr-Phe-Leu-Nle-Orn-Pro-Arg-Gly-NH2 (peptide)
peptide: EEEXXXXXXXXXXXXXXXXYFLXXPRG
HELM: PEPTIDE1{[O=C(O)CCCCCCCCCCCCCCCCCCC(=O)[*:2]].[gGlu].[gGlu].[gGlu].[Sar].[Sar].[Sar].[Sar].[Sar].[Sar].[Sar].[Sar].[Sar].[Sar].[Sar].[Sar].[Sar].[Sar].[Sar].[O=C(CN1CCN(CCN[*:1])CC1)[*:2]].Y.F.L.[Nle].[Orn].P.R.G.[am]}$$$$V2.0
SMILES: CCCC[C@H](NC(=O)[C@H](CC(C)C)NC(=O)[C@H](Cc1ccccc1)NC(=O)[C@H](Cc1ccc(O)cc1)NC(=O)CN1CCN(CCNC(=O)CN(C)C(=O)CN(C)C(=O)CN(C)C(=O)CN(C)C(=O)CN(C)C(=O)CN(C)C(=O)CN(C)C(=O)CN(C)C(=O)CN(C)C(=O)CN(C)C(=O)CN(C)C(=O)CN(C)C(=O)CN(C)C(=O)CN(C)C(=O)CN(C)C(=O)CC[C@H](NC(=O)CC[C@H](NC(=O)CC[C@H](NC(=O)CCCCCCCCCCCCCCCCCCC(=O)O)C(=O)O)C(=O)O)C(=O)O)CC1)C(=O)N[C@@H](CCCN)C(=O)N1CCC[C@H]1C(=O)N[C@@H](CCCNC(=N)N)C(=O)NCC(N)=O

Columns and labels:
[1] = cited from earlier work
[2] = target: T1, human neuromedin U receptor 1; test: cell-based or functional assay
[3] = target: human neuromedin U receptor 2 (human, UniProt Q9GZQ4 1-415); test: cell-based or functional assay
Chain of human neuromedin U receptor 2 (Q9GZQ4 whole entry): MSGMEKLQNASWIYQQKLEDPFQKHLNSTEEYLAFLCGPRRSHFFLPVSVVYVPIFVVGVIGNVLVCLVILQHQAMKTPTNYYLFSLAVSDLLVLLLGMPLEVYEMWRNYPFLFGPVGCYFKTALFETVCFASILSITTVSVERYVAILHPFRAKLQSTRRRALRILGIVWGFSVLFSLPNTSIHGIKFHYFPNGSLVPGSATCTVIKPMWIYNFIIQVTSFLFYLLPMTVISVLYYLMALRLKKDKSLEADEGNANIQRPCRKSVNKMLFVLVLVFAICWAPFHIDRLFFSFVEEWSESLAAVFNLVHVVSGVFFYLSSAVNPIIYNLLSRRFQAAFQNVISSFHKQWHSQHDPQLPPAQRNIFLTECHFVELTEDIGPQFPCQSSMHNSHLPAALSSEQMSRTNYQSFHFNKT

Row | Molecule | half-life after subcutaneous injection [1] | EC50 (activity as measured in Example 3) [2] [nM] | EC50 (activity as measured in Example 3) [3] [nM]
1 | Neuromedin U [native NMU] | less than 5 min | – | –
2 | B1 | – | 68 | 2.1
3 | B2 | – | 0.37 | 0.047
4 | B3 | – | 21 | 1.7
5 | B4 | – | 0.33 | 0.054
6 | B5 | – | 75 | 3
